Experimental data from article PMC3722153, “Refolding of a Thermostable Glyceraldehyde Dehydrogenase for Application in Synthetic Cascade Biomanufacturing” (PLoS ONE, 2013).

Columns and labels:
[1] = molecular target: the molecule itself; assay: SEC; Superdex 200 gel filtration, calibrated with molecular mass standards; 50 mg lyophilized TaAlDH dissolved in 10 mL 20 mM TRIS pH 8; soluble and refolded preparations
[2] = substrate: NC(=O)c1ccc[n+]([C@@H]2O[C@H](COP(=O)(O)OP(=O)(O)OC[C@H]3O[C@@H](n4cnc5c(N)ncnc54)[C@H](OP(=O)(O)O)[C@@H]3O)[C@@H](O)[C@H]2O)c1; assay: purified protein; format: biochemical, Thermoplasma acidophilum; details: 5 mM D-glyceraldehyde, 0-0.24 mM NADP+, 100 mM HEPES pH 6.2, 50°C, refolded enzyme 0.02 mg/mL, apparent, varied: cofactor
Description: (§1) (glyceraldehyde dehydrogenase, aldehyde dehydrogenase from Thermoplasma acidophilum)

[3] = substrate: NC(=O)c1ccc[n+]([C@@H]2O[C@H](COP(=O)(O)OP(=O)(O)OC[C@H]3O[C@@H](n4cnc5c(N)ncnc54)[C@H](O)[C@@H]3O)[C@@H](O)[C@H]2O)c1; assay: purified protein; format: biochemical, Thermoplasma acidophilum; details: 5 mM D-glyceraldehyde, 0-75 mM NAD+, 100 mM HEPES pH 6.2, 50°C, refolded enzyme 0.02 mg/mL, apparent, varied: cofactor
Description: as §1

B1: glyceraldehyde dehydrogenase (aldehyde dehydrogenase) from Thermoplasma acidophilum (enzyme, UniProt Q9HK01 1-493, looked up)
chain: MDTKLYIDGQWVNSSSGKTVDKYSPVTGQVIGRFEAATRDDVDRAIDAAEDAFWAWNDLGSVERSKIIYRAKELIEKNRAELENIIMEENGKPVKEAKEEVDGVIDQIQYYAEWARKLNGEVVEGTSSHRKIFQYKVPYGIVVALTPWNFPAGMVARKLAPALLTGNTVVLKPSSDTPGSAEWIVRKFVEAGVPKGVLNFITGRGSEIGDYIVEHKKVNLITMTGSTATGQRIMQKASANMAKLILELGGKAPFMVWKDADMDNALKTLLWAKYWNAGQSCIAAERLYVHEDIYDTFMSRFVELSRKLALGDPKNADMGPLINKGALQATSEIVEEAKESGAKILFGGSQPSLSGPYRNGYFFLPTIIGNADQKSKIFQEEIFAPVIGARKISSVEEMYDLANDSKYGLASYLFTKDPNIIFEASERIRFGELYVNMPGPEASQGYHTGFRMTGQAGEGSKYGISEYLKLKNIYVDYSGKPLHINTVRDDLFQ
notes: glyceraldehyde dehydrogenase (TaAlDH) of Thermoplasma acidophilum; calculated mass 56 kDa (56.4 kDa); they are written as one molecule; also called TaAlDH; AlDH; source: E. coli BL21 (DE3)
stoichiometry N [1]: 2
Km [2]: 0.022 ± 0.001 mM
Vmax [2]: 0.849 µmol/min/mg
Km [3]: 22.13 ± 1.43 mM
Vmax [3]: 1.86 µmol/min/mg
